From PMC4865122, “Structural Analysis and Insights into the Oligomeric State of an Arginine-Dependent Transcriptional Regulator from Bacillus halodurans” (PLoS ONE, 2016)

What was measured:
BhArgR (ArgR, Bh2777) = molecular target: T1, BhArgR (ArgR, Bh2777) (Halalkalibacterium halodurans, UniProt Q9K973); assay: SEC-MALS (trimer to hexamer shift); EMSA; conditions: 10 mM L-arginine; SEC-MALS: 20 mM Tris-HCl pH 8.0, 200 mM NaCl, 2 mM MgCl2, 1 mM DTT; EMSA with argG ARG box DNA at 4 C; corepressor; indirect evidence of binding
T1 construct: full length, 149 residues; hexa-histidine tagged in SEC-MALS; trimer (57 kDa) without L-arginine, hexamer (114 kDa) with L-arginine
T1 sequence (Q9K973 1-149): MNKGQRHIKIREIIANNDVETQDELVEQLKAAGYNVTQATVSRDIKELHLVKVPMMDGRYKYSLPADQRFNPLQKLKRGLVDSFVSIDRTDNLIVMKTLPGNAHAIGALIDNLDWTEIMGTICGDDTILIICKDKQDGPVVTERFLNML

[1] = molecular target: T2, BhArgR (Bacillus halodurans) (UniProt Q9K973); assay: EMSA; conditions: 50 mM Tris-HCl pH 7.5, 200 mM NaCl, 10 mM MgCl2, 10 mM CaCl2, 10% glycerol; on ice 40 min; 6% native PAGE in TBE pH 8.8 +/- 10 mM L-arginine, 4 C
T2 sequence: T1 sequence (Q9K973 1-149)

[2] = molecular target: the molecule itself; assay: SEC-MALS; Superdex-200 10/300 GL, 20 mM Tris-HCl pH 8.0, 200 mM NaCl, 2 mM MgCl2, 1 mM DTT; 3~6 mg/ml injected; with 10 mM L-arginine

Question: How did the “SEC-MALS (trimer to hexamer shift); EMSA” value (BhArgR (ArgR, Bh2777)) turn out when `N=C(N)NCCC[C@H](N)C(=O)O` [L-arginine] was run?
Answer: it formed a hexamer in the presence of L-arginine in multi-angle light scattering (MALS) studies

Question: With “CCCAGAATACGCTAAGACAACTTTCTTTTTGCTCATGCTAACAATCCCTCCAAAGTGAATATTCATACTCTTGTTATTATTTTTATACATCCACTTGCATAAAAAAAGGCCTGTATAAA (double strand) [119-bp cognate argG promoter DNA]” as the molecule, how does the binding [1] read?
Answer: binds

B1: Arginine repressor (ArgR, BH2777) from Bacillus halodurans (natural protein, UniProt Q9K973 1-149, looked up)
chain: T1 sequence (Q9K973 1-149)
notes: Arginine repressor ArgR (BH2777), Bacillus halodurans, 149 amino acid residues; Met1, Asp2 and Lys3 were in the crystal but disordered, and the model covers residues 4-149; The tag is named for the SEC-MALS sample; Oligomer: trimer without L-arginine, hexamer with 10 mM L-arginine; also called BhArgR; B. halodurans ArgR; source: overexpressed and purified
Question: B1 was tested. Which “stoichiometry N” value [2] did it give?
Answer: 6
